This assay addresses T1, Aβ42 oligomers (UniProt P05067 672-713).
T1 construct: domain: Aβ42; Oligomeric state
In words: ELISA on coated Aβ42 oligomers, His-tagged polypeptide at 1 µg per well.

T1 sequence (P05067 672-713 limits assumed): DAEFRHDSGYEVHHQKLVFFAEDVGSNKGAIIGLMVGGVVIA
Procedure: 100 μL of monomers, oligomers or fibers of Aβ42, PrP, amylin, insulin or lysozyme were respectively coated onto a 96-well ELISA microplate at 1 μg/well, BSA was used as a negative control. The plate were then placed at 37° C. for 2 h, blocked with 200 μL/well of 3% BSA at 37° C. for 2 h, and washed 3 times with PBS. 100 μL of histidine-tagged ZR polypeptide solution was added, and the plate was incubated at room temperature for 1 h, and then washed 3 times with PBS containing 0.1% Tween-20. 100 μL of HRP-linked antibody 9E10 which can recognize the histidine tag was added to each well, and the plate was incubated at room temperature for 1 h, and then washed 3 times with PBS containing 0.1% Tween-20. 100 μL of TMB was added to each well, and the plate was placed at 37° C. for 20 min. Then, 50 μL of 1 mmol/L sulfuric acid was added to each well to terminate the reaction, and OD450 values were measured using a microplate reader. The above procedure was repeated for 3 times under the same condition.

B1: SEQ ID NO: 8, histidine-tagged (peptide)
peptide: SAFNNKR
notes: also called ZR with position 2 substituted with alanine; not shown: histidine tag
The molecule B1 returned an OD450 of 0.48.

B2: SEQ ID NO: 10, histidine-tagged (peptide)
peptide: SFFANKR
notes: also called ZR with position 4 substituted with alanine; not shown: histidine tag
Molecule B2 yielded an OD450 of 0.57.

Values taken from patent publication US20190330271A1 (HANGZHOU WISDOM PANACEA BIOLOGICS, published 2019).
